How the values were obtained:
Test in all cases: BLI; fortéBio Octet Red384; RSV F variant captured on motavizumab IgG loaded on anti-human Fc probes; Fab in solution 0.007 to 0.5 μM; 30°C; PBS + 1% BSA; 1:1 fit
Conditions in all cases: both partners purified
[1] = biological target: T1, DS-Cav1 5-ABCDE, foldon removed (Human respiratory syncytial virus A, …, S155C | S290C | S190F | V207L | L512C (stands in the printed letters) | L513C …)
T1 construct: RSV F glycoprotein, F1 subunit from its N-terminus to residue 511, with the DS (S155C-S290C) and Cav1 (S190F, V207L) mutations; RSV F α10 helix from residue 512 with rings A, B and C; added stretch based on the α10 heptad repeat; ring D at 533C-534C and ring E at 540C-541C; Gly-Gly linker and LVPR of the thrombin site, left after cleavage; trimeric species purified after foldon removal; also …

[2] = biological target: T2, DS-Cav1 4-BCDE, foldon removed (Human respiratory syncytial virus A, …, S155C | S290C | S190F | V207L | G519C (stands in the printed letters) | K520C …)
T2 construct: RSV F glycoprotein, F1 subunit from its N-terminus to residue 511, with the DS (S155C-S290C) and Cav1 (S190F, V207L) mutations; RSV F α10 helix from residue 512 with rings B and C; added stretch based on the α10 heptad repeat; ring D at 533C-534C and ring E at 540C-541C; Gly-Gly linker and LVPR of the thrombin site, left after cleavage; trimeric species purified after foldon removal; also called …

[3] = biological target: T3, DS-Cav1 3-BCD, foldon removed (Human respiratory syncytial virus A, …, S155C | S290C | S190F | V207L | G519C (stands in the printed letters) | K520C …)
T3 construct: RSV F glycoprotein, F1 subunit from its N-terminus to residue 511, with the DS (S155C-S290C) and Cav1 (S190F, V207L) mutations; RSV F α10 helix from residue 512 with rings B and C; added stretch that duplicates part of the coiled-coil; ring D at 533C-534C; Gly-Gly linker and LVPR of the thrombin site, left after cleavage; trimeric species purified after foldon removal; also called rings BCD …

[4] = biological target: T4, DS-Cav1 4-ABCD, foldon removed (Human respiratory syncytial virus A, …, S155C | S290C | S190F | V207L | L512C (stands in the printed letters) | L513C …)
T4 construct: RSV F glycoprotein, F1 subunit from its N-terminus to residue 511, with the DS (S155C-S290C) and Cav1 (S190F, V207L) mutations; RSV F α10 helix from residue 512 with rings A, B and C; added stretch that duplicates part of the coiled-coil; ring D at 533C-534C; Gly-Gly linker and LVPR of the thrombin site, left after cleavage; trimeric species purified after foldon removal; also called Rings ABCD; …

[5] = biological target: T5, DS-Cav1 2-AB, foldon removed (Human respiratory syncytial virus A, …, S155C | S290C | S190F | V207L | L512C (stands in the printed letters) | L513C …)
T5 construct: RSV F glycoprotein, F1 subunit from its N-terminus to residue 511, with the DS (S155C-S290C) and Cav1 (S190F, V207L) mutations; RSV F α10 helix from residue 512 with rings A and B; Gly-Gly linker and LVPR of the thrombin site, left after cleavage; trimeric species purified after foldon removal; also called Rings AB; rings AB without foldon; source: Expi293F, transient transfection, purified from …

B1: D25 antigen binding fragment (Fab) (Fab, V domains shown)
VH: QVQLVQSGAEVKKPGSSVMVSCQASGGPLRNYIINWLRQAPGQGPEWMGGIIPVLGTVHYAPKFQGRVTITADESTDTAYIHLISLRSEDTAMYYCATETALVVSTTYLPHYFDNWGQGTLVTVSS
VL: DIQMTQSPSSLSAAVGDRVTITCQASQDIVNYLNWYQQKPGKAPKLLIYVASNLETGVPSRFSGSGSGTDFSLTISSLQPEDVATYYCQQYDNLPLTFGGGTKVEIK
notes: Fab in solution in the Octet assays; also called site Ø-specific antibody D25
[1]
  Kd: 0.47 nM
[2]
  Kd: 0.33 nM
[3]
  Kd: 0.38 nM
[4]
  Kd: 0.32 nM
[5]
  Kd: 0.21 nM
